Test results as given in the nanobody polyreactivity screen of Harvey et al. (2022).

test: yeast display, Sf9 membrane polyspecificity reagent, FACS + sequencing; frameworks hold sequencing errors
Procedure, shortened: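 Nanobodies came from a synthetic yeast display library in Saccharomyces cerevisiae BJ5465, induced with galactose for 36–48 hours and stained for 1 hour at 4 °C with 10% biotinylated, detergent-solubilized Sf9 membrane reagent. Cells were enriched on streptavidin microbeads and then FACS-sorted, with low and high (top ~1%) gates set on anti-HA fluorescence for expression and streptavidin fluorescence for reagent binding. Each polyreactivity label reflects the gate a clone came from. Genes were amplified by colony PCR, sequenced by MiSeq 2 × 250 and filtered by CDR length.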

Sequence	polyreactivity (PSR sort gate)
QVQLVESGGGLVQAGGSLRLSCAASGIFWANGMGWYRQAPGKEREWVAAITSGGSTNYADSVKGRFTISRDNAKNTVYLQMNSLKPEDTAVYYCNKPWYSYRYGGVGYGYWGQGTQVTVSS	low polyreactivity
QLQLQESGGGLVQAGGSLRLSCAASGPITRRSTMGWYRQAPRKVRELVTAITRGTNTNYADSVKGRFTISRDNAKNTEYLQMNSLKPEDTAVYYCAAYGVLKPSRGDAVFLRYLGQGTQVTVSS	low polyreactivity
QVQIEESGGGLVQAGGSLRLSCAASGSTFGINAMGWSRQAPGKERELVAAISSRGGSTYYADSVKGRFTISRDNAQNTVYLQMNSLKPADTALYSCNRRGWSRTHQYDYWGQGTQVTVSS	high polyreactivity
QVQLVESGGGLVQAGVSLRLSCAASASTFSIYAMGWYRHAPGKERELVAAIDSGGRTKYADSVKGRFTISRDNAKNPVYLQMNSLKPEDTAVYYWAAVFRGWWLYDYWGLGTQVTVSS	low polyreactivity
QVQLVESGGGLVQAGGSLRLSCAASGIIFYYNAMGWYRQAPGKEREYVASISSRGGSTYYADSVKGRFTISRDNAKNTVYLQMKSLKPEDPAVYYCAAAFDWRRQRYNYWGHGTQVTVSS	high polyreactivity
QVQLVESGGGLFQAGGSLRLSCAASGIIFPYYVMGWSRQAPGTEREFVATISWSGGRTYYADSVKGRFTISRDNAKNTVYFQMNSLKPEDTAVYYCAAAKHYYNGYGYWGQGTQVTVSS	high polyreactivity
QVQLVESGGGVVQAGGSLRLSCAGSGFTFPSYAMGWYRQAPGKERELVAAISVGGGSTYYADSVKGRFTISRDKAKNTVYLQMNSLKPEDTAVYYCNADYWYWVWLVGGNVDLDYWGQGTQVTVSS	high polyreactivity
QVQLVESGGGLVQAGGSLRLSCAASGFILKDNAMGWYRQAPGKERELVAAISSGGGTYYADSVKGRFTISRDNAKNTVSLKMNSLKPEDTAVYYCNADDLYSLNDSSEDYWGQGTQVTVSS	high polyreactivity
QVQLVESGGGLVQAGGSLRLSCAASGNIFRINAMGWYRQAPGKERELVAAISRSVGSTYADSVKGRFTISRDNAKNTVYLQMNSLKPEDTAVYYCNARGRTQQRWVDYWGQGTQVTVSS	high polyreactivity
QVQLVESGGGLVQAGGSLRLSCAASGSTFVYNTMGWSRQAPGKERELVADITWRGASTYYADSVKGRFTISRDNAKNTVYLQMNSLKPEDTAVYYCAADYYSATGSYAYDYWGQGTQVTVSS	low polyreactivity
QVQLVESGGGLVQAGGSLRISCAASGATFYYYAMGWYRQAPGKERELVASTYYADSVKGRFSISRDNAKNTVYLQMKSLKPEDTAVYYCAKRFKATYEYDYWGQGTQVTVSS	low polyreactivity
QVQLVESGGGLVQAGGSLRLICAASGLIFVRNVMGWYRQAPGKERELVAAINLSTGSTYYADSVKGRFTISRDNAKNTVYLQMNCLKPEDTAVYYCAAEYLYWDDLQDYEYWGQGTQVTVSS	low polyreactivity
QVQLVESGGGLVQAGGSLRLSCAASGSIFRLYGMGWYRQAPGKERELVASITYRGGNTYYADSVKGRFTISRDNAKNTVYLQMNSLKPEDTAVYYCARSGYQKVGGFRYDYWGQGTQVTVSS	low polyreactivity
QVQLVESGGGLVQAGGSLRLSCAASGSIFPFYAMGWYRQAPGKERELVAAISSRGGSTYYADSVKGRFTISRDNAKNTVYLQMNSLKPEDTAVYYCAARDYSIKVRLGYWGQGTQVTVSS	low polyreactivity
QVQLVESGGGLVQAGGSLRLTCAASGRTFQYNAMVWYRQAPGKERELVAAISSSGGSTYYADSVKGRFTISRDNAKNTVYLQMNSLKPEDTAVYYCNAYSQSWNFYGDGDYWGQGTQVTVSS	low polyreactivity
QVQLVESGGGLVQAGCSLLLICAASGRTFCFNTMGWYRQAPGKERELVASISGSGGRTYFADSVKGRFTISRDNEKNTVYFQMNSLKPEDTAVYYCAARRYSRDYDYWGQGTQVTVSS	high polyreactivity
QVQLVESGGGLVQAGGSLRLSCAASGRTFGYNTMGWYRQQPGKEREFVAAINYSGGSTYYADSVKGRFTISRDYGKNTVYLQMNSLKPEDTAVYYCNAKPRWYVPYDYWGQGTQVTVSS	high polyreactivity
QVQLVESGGGLVQAGGSLRLSCAASGGTFLPNAMGWYRQAPWKERELVAAITSGGRTNYADSVKGRFTISRDNAKNTVYFQMNSLKPEDTAVYYCAARVRGYPTRPIPYYYWGQGTQVTVSS	high polyreactivity
QVQLVESGGGLVQAGGSLRLSCAASGFIFTEYAMGWYRQAPGKEREFVAAISWSGGSTYYADSVKGRFTISRDNAKNTVYLQMNSLKPEDTAVYYCAKRSRGVKYDYWGQGTQVTVSS	high polyreactivity
QVQLVESGGGLDQAGGSLRLSFAASGFIFRYYTMGWYRQAPGKERELVAVITRGGSTYYADSVKGRFTISRDNAKNTVYLQMNSLKPEDTAVYYCAADRPGTGYSDYDYWGQGTQVTVSS	high polyreactivity
QVQLVESGGGLVQAGGSLRLSCAASGFTLGRYAMGWYRQAPGKEREFVAAISSSGTTTNYADSVKGRFTISRDNAKNTVYLQMNSLKPEDTAVYFCNAYTTKRRWIKYDYWGQGTQVTVSS	high polyreactivity
QVQLVESGGGLVQAGGSLRLSCAASGSTFHRYTMGWYRQAPGKERELVAAISSGGRTYYADSVKGRFTISRDNAKNTVYLQMNSLKPEDTAVYYCNSRYPRQYWGGYDYWGQGTQVTVSS	high polyreactivity

Sequence	polyreactivity (PSR sort gate)
QVQLVESGGGLVQAGGRLRLSCAASGSTFTHYAMGWYRQAPGKERELVAAISSGGSTYYADSVKGRFTISRDNAKNTVYLQMNSLKPEDTAVYYCAADYDWHDWWYPHDYWGQGTQVTVSS	low polyreactivity
QVQLEESGGGLVQAGGSLRLICAASGSTFGDNAMGWSRQAPGKEGEFVAGISTNGGSTYYADSVKGRFTISRDNAKNTFYLQMNSLKPEDIAVYSCAAVNYYDQYGDYYWGQGTQVTVSS	low polyreactivity
QVQLVESGGGLVQAGGSLRLSCAASGSTFYRYAMGGYRPAPGKEREFVAAISGSGGSTRYADSVKGRFTISRDNAKNTVYLQMNSLKPEDTAVYYCAARSRYGYITFDYWGQGTQVTVSS	high polyreactivity
QVQLVESGGGLVQAGGSLRLSCAASGRTFYNAMGWYRQAPVKEMELVAAITTGGGTKYADSVKGRFTISRDNAKNTFYLQMNSLKPEDTAVYYCNTDEWYHFYHGAHKYDYWGQGTQVTLSS	low polyreactivity
QVQLVESGGGLVQAGGSLRFSCAASGDTFTSYAMGWYRQAPGKERELVAAISRRGGSTYYADSVKGRFTISRDNAKNTVYLQMNSLKPEDTAVYYCAAKSYSYTEFDYWGQGTQVTVSS	high polyreactivity
QVQLQESAGALVQAGGSLRQSYAASGYIFPSLSMGRYRQAPGKEREFVAAIGRGSTNNYADSVKGRFTISRDNANNTAYQQMISLKPEDTAVYYCAAAASQLTRHLYWGQGTQVTVSS	low polyreactivity
QVQLVESGGVLVQAGGSLRLSCAASGRIFSIYGMGWYRQAPVKEREFVASITYSGGSTYNADSVKGRFTISRDTAKNTVYLQMKSLKPEDTAVYYCAKYVFSAYDYWGQGTQVTVSS	low polyreactivity
QVQLVESGGGLVQAGGSLRLSCAASGSIFRHYTMGWYRQAPGKERELVAVISSGGNTNYADSVKGLFTISRDNAKYTDYLQLNSLKPEDTAVYYCAAGGYDVYHDPYYYWGQGTQVTVSS	high polyreactivity
QVQLVESGGGLVQAGGSLRLSCAASGSTFGKYAMGWYRQAPGKERELVAAITWSGASTFYADSVKGRFTISRDNAKNTVYLQMNSLKPEDTAVYYCAARSYKSYYIFDYWGQGTQVTVSS	low polyreactivity
QVQLVESGGGLVQAGGSLRLSCAASGSTLWRYAMGWYRQAPGKERELVAGISRGGGSTYYADSVKGRFTISRDNANKTVYLQKNSLKPEDTAVYYCAADDPLYSISTGDYWGQGTQVTVSL	low polyreactivity
QVQLVESGGCLVQAGGSLRLSCAASGFTFSRYNMGWYRQAPGKESELVATISWSGSRTYYADSVKGRFTISRDNAKNTVYLQINSLKPDDTAFYYCNFAPHRQVFYTGQYDYWGQGTQVTVSS	high polyreactivity
QVQLVESGGGLVQAGGSLRLSCAASGSTFALNAMGWYRQAPGKERELVADINYIGDSTYYADSVKGRFTISRDNAKNTVYLLMNSLKPEDTAVYYCAAKSIIRPYAPRRDDMDYWGQGTQVTVSS	low polyreactivity
QVQLVESGGGLVQAGGSLRLSCAASGIILYGYDMGWYRQAPGKERELVAAISSSGGSTYYADSVKGRFTISRDNAKNTVYLQMNSLKPEDTAVYYCAASKRYYGQLLTGGYYGYYYCGQGTQVTVSS	high polyreactivity
QVQLVESGGGLVQAGGSLRLSCAASGRIFQYYDMGWYRQAPGKERELVAAITFSGGSTYYADSVKGRFTISRDNAKNTVYLQMNSLKPEDTAVYYCARGYWVYYPDGDYWGQGTQVTVSS	low polyreactivity
QDQLVHSGGGLVQSGGSLRISCAASGFTFYLYGMGRYRQAPGKERDLDAAIDSTGSTNYADSVKGRFTISRDNAKNTVYLQMNSLKPEDTAVYYCAADFYLYYFRSPYDYWGQGTQVTVSS	high polyreactivity
QVQLVESWGGLVQAGGSLRLSCAASGSTFAGYAMGWYRQAPGKERELVAAIDWGGDSTYYADSVKGRFTISRDNAKNTVYLQMNSLKPEDTAVYYCAAYWYSRYDYDYWGQGTQVTVSS	low polyreactivity
QVQLVESGGGIVQAGGSLRLSCAASGRIFKYNAMGWYRQAPGKERELVAAISWSDGSTYYADSVKGRFTISRDNAKNTVYLQMNSLKPEDTAVYYCAARGYGFPELDYWGQGTQVTVSS	high polyreactivity
QVQLVESGGGLVQAGGSLRLSCAASGSTFYSYAMGWYRQAPGTERELVAAITSRGDRTYYADSVKGRFTISRDNAKNTVYLQMNSLKPEDTAVYYCAAEQSWQGYAYYYWGQGTQVTVSS	high polyreactivity
QVQLVDSGGGLVQAGGSLRLSCAASGSIVVLYAMGWYRQAPGKERELVAAITSGASTNYADSVKGRFTISRDNAKNTVYLQMNSLKPEDTAVYYCHTGSRLDRVDSWGQGTQVTVSS	low polyreactivity
QVQLVESGGGLVQAGGSLRLSCAASGSTFRIYAMGWYRQAPGKERELVAAISWSSGSTYYADSVKGRFTISRDNAKNTVYFQMNSLKPEDTAVYYCATYARRSGYYYWGQGTQVTVSS	high polyreactivity
QVQLQDSGGGLVQAGGSLRLSCAASGYIFGSGSMGWFRQAPGKERELVATINNGSSTYYADSVKGRFTISRDNAKNTVYLQMNSLKPEDTAVYYCNRVGTYHSYDYWGQGTQVTVSS	high polyreactivity
